Results on three molecules are retold here after patent US20120316071A1 (published 2012).

The target in assay [1] is T1, rHuman P-Cadherin/Fc Chimera, CF (R&D Systems Cat#861-PC) (human, UniProt P22223 108-654).
T1 construct: Bought from R&D Systems; not shown: Fc of the bought chimera
Nature of the assay: MSD multispot ECL, antigen spotted on plate, Fab 176.3 nM; blank spot 346.

Assay [2] has as its target T2, Recombinant Human DLL4 (R&D Systems Cat#1506-D4/CF) (human, UniProt Q9NR61 27-524).
T2 construct: Bought from R&D Systems; also called rHuman DLL4; delta-like protein 4
The description is as above.

The target of assay [3] is T3, rHuman CD44/Fc Chimera, CF (R&D Systems Cat#3660-CD) (human, UniProt P16070 21-220).
T3 construct: Bought from R&D Systems; not shown: Fc of the bought chimera
Described as above.

Assay [4] addresses T4, rHuman IGF-1 sR, (IGF-1 sR), CF (R&D Systems Cat#391-GR) (human, UniProt P08069 31-932).
T4 construct: Bought from R&D Systems and called a soluble receptor; also called insulin-like growth factor-1 soluble receptor
Described as above.

In assay [5] the target is T5, rHuman Notch-1/Fc Chimera, CF (R&D Systems Cat#3647-TK) (human, UniProt P46531 19-526).
T5 construct: Bought from R&D Systems; not shown: Fc of the bought chimera
Described as above.

For assay [6], the target named is T6, rHuman EGF R/Fc Chimera, CF (R&D Systems Cat#344-ER) (human, UniProt P00533 25-645).
T6 construct: Bought from R&D Systems; also called epidermal growth factor receptor (EGF R); not shown: Fc of the bought chimera
Described as above.

Assay [7] deals with T7, rHuman Erythropoietin R/Fc Chimera, CF (R&D Systems Cat#963-ER) (human, UniProt P19235 25-250).
T7 construct: Bought from R&D Systems; also called EPO R/Fc; Epo R/Fc chimera; not shown: Fc of the bought chimera
T7 sequence (looked up): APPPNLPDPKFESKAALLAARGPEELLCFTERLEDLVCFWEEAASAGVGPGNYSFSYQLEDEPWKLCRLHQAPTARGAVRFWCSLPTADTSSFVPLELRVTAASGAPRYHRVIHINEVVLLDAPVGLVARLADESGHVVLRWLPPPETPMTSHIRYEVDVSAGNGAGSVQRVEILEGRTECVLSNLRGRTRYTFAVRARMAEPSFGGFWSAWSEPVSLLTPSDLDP
The description is as above.

For assay [8], the target named is T8, rHuman ErbB2/Fc Chimera, CF (R&D Systems Cat#1129-ER) (human, UniProt P04626 23-652).
T8 construct: Bought from R&D Systems; also called human epidermal growth factor 2 receptor (ErbB2); not shown: Fc of the bought chimera
Described as above.

Assay [9] concerns the target T9, rHuman HGF R/c-MET/Fc Chimera, CF (R&D Systems Cat#358-MT/CF) (human, UniProt P08581 25-932).
T9 construct: Bought from R&D Systems; also called HGF R/Fc; hepatocyte growth factor receptor (HGF R/c-Met); not shown: Fc of the bought chimera
The assay is described as above.

The target in assay [10] is T10, rHuman Erythropoietin R/Fc Chimera, CF (R&D Systems Cat#963-ER) (human, UniProt P19235 25-250).
T10 construct: Bought Fc chimera; also called EPO R/Fc; Epo R; Fc part of the bought chimera not given
T10 sequence (looked up): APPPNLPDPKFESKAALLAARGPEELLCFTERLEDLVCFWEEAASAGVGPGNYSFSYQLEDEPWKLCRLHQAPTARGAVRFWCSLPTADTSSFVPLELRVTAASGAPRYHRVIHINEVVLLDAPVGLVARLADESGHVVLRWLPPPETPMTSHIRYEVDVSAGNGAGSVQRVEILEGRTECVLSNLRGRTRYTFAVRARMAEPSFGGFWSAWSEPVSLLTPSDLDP
As to the kind of experiment: MSD Multispot ECL, antigen spotted on plate, Fab at 480 nM; blank spot 362.

In assay [11] the target is T11, Recombinant Human DLL4 (R&D Systems Cat#1506-D4/CF) (human, UniProt Q9NR61 27-524).
T11 construct: Bought recombinant protein; also called rHuman DLL4; delta-like protein 4
The assay is described as above.

Assay [12] has as its target T12, rHuman CD44/Fc Chimera, CF (R&D Systems Cat#3660-CD) (human, UniProt P16070 21-220).
T12 construct: Bought Fc chimera; Fc part of the bought chimera not given
Described as above.

Assay [13] addresses T13, rHuman Erythropoietin R/Fc Chimera, CF (R&D Systems Cat#963-ER) (human, UniProt P19235 25-250).
T13 construct: Bought recombinant protein; also called EPO R/Fc; Epo R; Fc part of the bought chimera not given
T13 sequence (looked up): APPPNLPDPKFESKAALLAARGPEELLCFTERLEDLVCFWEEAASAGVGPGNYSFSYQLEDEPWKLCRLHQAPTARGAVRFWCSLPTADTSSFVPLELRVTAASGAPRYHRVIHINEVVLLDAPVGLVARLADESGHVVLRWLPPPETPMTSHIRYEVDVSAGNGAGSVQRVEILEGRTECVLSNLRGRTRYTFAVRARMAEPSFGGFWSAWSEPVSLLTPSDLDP
As to the kind of experiment: Multispot ECL (MSD), antigen spotted on plate, Fab 15.6 nM; blank spot 294.

Assay [14] addresses T14, rHuman Notch-1/Fc Chimera, CF (R&D Systems Cat#3647-TK) (human, UniProt P46531 19-526).
T14 construct: Bought recombinant protein; Fc part of the bought chimera not given
The assay is described as above.

Assay [15] concerns the target T15, rHuman IGF-1 sR, CF (R&D Systems Cat#391-GR) (human, UniProt P08069 31-932).
T15 construct: Bought recombinant soluble receptor; also called insulin-like growth factor-1 soluble receptor
Described as above.

The target in assay [16] is T16, Recombinant Human DLL4 (R&D Systems Cat#1506-D4/CF) (human, UniProt Q9NR61 27-524).
T16 construct: Bought recombinant protein; also called rHuman DLL4; delta-like protein 4
The description is as above.

In assay [17] the target is T13, rHuman Erythropoietin R/Fc Chimera, CF …. As to the kind of experiment: Multispot ECL (MSD), antigen spotted on plate, Fab 1000 nM; blank spot 1133.
For assay [18], the target named is T14, rHuman Notch-1/Fc Chimera, CF (R&D …). The description is as above.

T9 sequence (P08581 25-932, change not shown): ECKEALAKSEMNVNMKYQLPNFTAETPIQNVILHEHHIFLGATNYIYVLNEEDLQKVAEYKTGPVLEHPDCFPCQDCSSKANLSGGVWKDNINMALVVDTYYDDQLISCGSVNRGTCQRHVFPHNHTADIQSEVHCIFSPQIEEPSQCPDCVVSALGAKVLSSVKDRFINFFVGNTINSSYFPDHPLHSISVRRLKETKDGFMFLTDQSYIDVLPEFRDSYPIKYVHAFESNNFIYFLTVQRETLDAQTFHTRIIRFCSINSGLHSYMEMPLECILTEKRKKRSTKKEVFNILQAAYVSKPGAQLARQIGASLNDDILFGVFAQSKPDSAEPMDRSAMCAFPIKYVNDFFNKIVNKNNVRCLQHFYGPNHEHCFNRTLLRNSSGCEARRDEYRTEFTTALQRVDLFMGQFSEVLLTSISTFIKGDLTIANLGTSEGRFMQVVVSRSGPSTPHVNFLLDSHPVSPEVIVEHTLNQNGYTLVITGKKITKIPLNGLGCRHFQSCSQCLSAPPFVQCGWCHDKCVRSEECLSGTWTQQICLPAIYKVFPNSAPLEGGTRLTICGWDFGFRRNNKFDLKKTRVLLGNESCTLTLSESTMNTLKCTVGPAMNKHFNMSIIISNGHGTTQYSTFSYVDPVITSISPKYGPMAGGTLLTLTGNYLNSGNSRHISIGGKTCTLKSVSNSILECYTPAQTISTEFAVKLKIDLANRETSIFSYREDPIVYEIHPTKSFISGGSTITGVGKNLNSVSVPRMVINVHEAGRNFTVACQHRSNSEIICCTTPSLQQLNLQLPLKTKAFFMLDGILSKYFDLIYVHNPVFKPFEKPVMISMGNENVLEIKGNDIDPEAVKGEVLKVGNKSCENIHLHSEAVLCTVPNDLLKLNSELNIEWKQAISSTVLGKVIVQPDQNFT

B1: Fab VH1-46_IGHD3-10*01_IGHJ4*01 & B3_IGKJ1*01 (Fab, V domains shown)
VH: QVQLVQSGAEVKKPGASVKVSCKASGYTFTSYYMHWVRQAPGQGLEWMGIINPSGGSTSYAQKFQGRVTMTRDTSTSTVYMELSSLRSEDTAVYYCAREYYYGSGSYYNDYFDYWGQGTLVTVSS
VL: not shown
notes: Tested as a Fab made in E. coli; VH was cloned into Plasmid A (CH1 constant region, His6 and Flag tags); The kappa VL was cloned into Plasmid C (kappa CL)
As for B1, the ECL signal worked out at 532 in assay [1]; 460 in assay [2]; 376 in [3]; 393 in assay [4]; 664 in assay [5]; 428 in [6]. Further, the ECL signal in [7] was found to be 3520; in assay [8] it was 448; in [9], 418.

B2: Fab VH6-1_IGHD3-3*01_IGHJ4*01 & V4-3_IGLJ4*01 (Fab, V domains shown)
VH: QVQLQQSGPGLVKPSQTLSLTCAISGDSVSSNSAAWNWIRQSPSRGLEWLGRTYYRSKWYNDYAVSVKSRITINPDTSKNQFSLQLNSVTPEDTAVYYCAREYYDFWSGYYTDYFDYWGQGTLVTVSS
VL: QPVLTQPTSLSASPGASARLTCTLRSGINLGSYRIFWYQQKPESPPRYLLSYYSDSSKHQGSGVPSRFSGSKDASSNAGILVISGLQSEDEADYYCMIWHSSASFVFGGGTQLIIL
notes: Tested as a purified germline Fab made in E. coli; The VH was cloned into plasmid A (CH1 constant region, His6 and Flag tags) and the lambda VL into plasmid E (lambda CL)
For B2, the ECL signal in assay [10] was 621; in [11], 1530; in assay [12] it was 541.

B3: Fab VH1-46_IGHD6-13*01_IGHJ4*01 & B3_IGKJ1*01 (Fab, V domains shown)
VH: QVQLVQSGAEVKKPGASVKVSCKASGYTFTSYYMHWVRQAPGQGLEWMGIINPSGGSTSYAQKFQGRVTMTRDTSTSTVYMELSSLRSEDTAVYYCAREGYSSSWYDYFDYWGQGTLVTVSS
VL: not shown
notes: Germline Fab made in E. coli; VH was cloned into Plasmid A (CH1, His6 and Flag tags) and the kappa VL into Plasmid C (kappa CL)
Take B3: the ECL signal in assay [13] is 8360; in assay [14], 418; in assay [15] it was 349; in assay [16], 525; in [17], 8590; in assay [18], 2270.
